Laboratory results published in patent publication US20140079774A1.
Where no end group is shown, it is not given here.

Molecular target: Met (hepatocyte growth factor receptor, c-Met) on Hep3B cells (human) (UniProt P08581)
Test: flow cytometry saturation binding on Hep3B (cytochalasin D pre-treated), specific binding after subtraction of binding in saturating HGF; 0.015 wt % MC40 (~6 peptides/particle)

Sequence of UniProt P08581 (P08581 25-1390): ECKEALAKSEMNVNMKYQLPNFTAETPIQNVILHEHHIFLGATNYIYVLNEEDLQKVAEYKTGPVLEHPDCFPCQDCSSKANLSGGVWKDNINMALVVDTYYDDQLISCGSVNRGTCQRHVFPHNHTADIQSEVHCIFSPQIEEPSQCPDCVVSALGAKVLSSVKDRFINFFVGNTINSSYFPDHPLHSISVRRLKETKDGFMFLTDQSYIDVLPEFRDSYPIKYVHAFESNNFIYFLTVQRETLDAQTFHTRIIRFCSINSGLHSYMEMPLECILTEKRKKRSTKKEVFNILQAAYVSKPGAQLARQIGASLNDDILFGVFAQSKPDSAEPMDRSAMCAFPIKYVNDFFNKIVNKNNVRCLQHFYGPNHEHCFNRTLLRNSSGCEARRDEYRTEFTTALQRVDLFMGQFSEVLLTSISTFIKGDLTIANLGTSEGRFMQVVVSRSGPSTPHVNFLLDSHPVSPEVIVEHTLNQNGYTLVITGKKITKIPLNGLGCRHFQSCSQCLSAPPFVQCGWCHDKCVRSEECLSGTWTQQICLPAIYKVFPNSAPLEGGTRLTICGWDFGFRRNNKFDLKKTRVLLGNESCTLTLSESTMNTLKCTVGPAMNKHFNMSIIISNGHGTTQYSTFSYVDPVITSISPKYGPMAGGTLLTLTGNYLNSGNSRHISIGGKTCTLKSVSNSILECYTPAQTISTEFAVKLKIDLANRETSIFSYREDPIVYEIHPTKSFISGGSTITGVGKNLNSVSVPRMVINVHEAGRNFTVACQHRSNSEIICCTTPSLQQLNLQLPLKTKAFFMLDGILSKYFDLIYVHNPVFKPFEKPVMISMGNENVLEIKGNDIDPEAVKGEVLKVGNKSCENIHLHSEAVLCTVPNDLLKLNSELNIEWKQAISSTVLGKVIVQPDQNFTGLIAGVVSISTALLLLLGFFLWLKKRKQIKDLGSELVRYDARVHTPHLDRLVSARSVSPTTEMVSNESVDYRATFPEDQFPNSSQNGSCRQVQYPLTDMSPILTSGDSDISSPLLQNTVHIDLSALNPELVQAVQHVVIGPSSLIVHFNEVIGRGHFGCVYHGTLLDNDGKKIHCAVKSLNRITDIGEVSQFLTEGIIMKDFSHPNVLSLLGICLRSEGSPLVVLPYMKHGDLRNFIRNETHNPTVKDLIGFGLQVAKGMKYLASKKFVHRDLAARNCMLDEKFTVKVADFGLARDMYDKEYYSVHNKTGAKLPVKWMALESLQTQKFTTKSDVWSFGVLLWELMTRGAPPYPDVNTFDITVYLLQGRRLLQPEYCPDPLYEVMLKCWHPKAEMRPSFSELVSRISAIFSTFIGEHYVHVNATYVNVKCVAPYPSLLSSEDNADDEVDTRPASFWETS

- Kd: 1.05 nM
B1: MC40-targeted protocells (mesoporous silica nanoparticle-supported lipid bilayers displaying the MC40 targeting peptide) (peptide, not shown: small tags and cut ends)
peptide: ASVHFPPC
modifications: also: C-terminal Cys conjugated via crosslinker to DOPE in the lipid bilayer of a mesoporous silica protocell
